Measured values: patent publication US20050032696A1 (published 2005)

Target: the molecule itself
Experiment: yeast two-hybrid mating assay, β-galactosidase reporter
Experimental: The dual reporter YM4271 yeast strains containing the USE-B1 and USE-B1b tandem repeats have been described previously (O'Mahoney et al. 1998). A two-hybrid mating assay was used to examine the transactivation and dimerisation functions of hMusTRD1α1. The yeast reporter strain Y190 (CLONTECH) was transformed with 1 μg of pAS2-1, pAS2-1:hMusTRD1α1, or pAS2-1:ΔhMusTRD1α1 using an alkali cation method (BIO 101, Inc., La Jolla, Calif.) and mated with Y187 cells carrying either pACTII, pGAD10:hMusTRD1α1 or, pACTII:ΔhMusTRD1α1. Transformants were selected on complete synthetic media plates lacking tryptophan and leucine (BIO 101). Diploid cells were grown to saturation and used to inoculate test cultures (OD₆₀₀=0.1) that were grown for a further 24 h at 30° C. Cells were harvested in 100 μl Breaking Buffer (100 mM Tris-HCl pH 8, 20% glycerol, 5 mM PMSF, 2 mM DTT) and lysed by vortexing with glass beads. Protein concentration was determined by the Bradford method (Bio-Rad Laboratories, Sydney, NSW). Protein extracts (20 μg) were assayed for β-galactosidase activity with a chemiluminescence detection kit (CLONTECH) and a Turner Designs 20/20 luminometer (Sunnyvale, Calif.).

B1: ΔhMusTRD1α1 (truncated human MusTRD1α1, amino acids 1-458) (other)
chain: MALLGKRCDVPTNGCGPDRWNSAFTRKDEIITSLVSALDSMCSALSKLNAEVACVAVHDESAFVVGTEKGRMFLNARKELQSDFLRFCRGPPWKDPEAEHPKKVQRGEGGGRSLPRSSLEHGSDVYLLRKMVEEVFDVLYSEALGRASVVPLPYERLLREPGLLAVQGLPEGLAFRRPAEYDPKALMAILEHSHRIRFKLKRPLEDGGRDSKALVELNGVSLIPKGSRDCGLHGQAPKVPPQDLPPTATSSSMASFLYSTALPNHAIRELKQEAPSCPLAPSDLGLSRPMPEPKATGAQDFSDCCGQKPTGPGGPLIQNVHASKRILFSIVHDKSEKWDAFIKETEDINTLRECVQILFNSRYAEALGLDHMVPVPYRKIACDPEAVEIVGIPDKIPFKRPCTYGVPKLKRILEERHSIHFIIKRMFDERIFTGNKFTKDTTKLEPASPPEDTSAEVS
notes: the fusion parts are not written into the chain; In the COS-7 Western blot it was expressed from pCI-neo; also called ΔMusTRD; hMusTRD1α1458aa
- binding result: binds
